This is an account of results in PMC3376730, “Crystal structure of Caulobacter crescentus polynucleotide phosphorylase reveals a mechanism of RNA substrate channelling and RNA degradosome assembly” (Open Biology, 2012).

B3: Caulobacter crescentus polynucleotide phosphorylase (enzyme, UniProt B8GWZ0 1-712, looked up)
chain: MFDIKRKTIEWGGKTLVLETGRIARQADGAVLATMGETVVLATAVFAKSQKPGQDFFPLTVNYQEKTFAAGKIPGGFFKREGRPSEKETLVSRLIDRPIRPLFVKGFKNEVQVVVTVLQHDLENDPDILGMVAASAALCLSGAPFMGPIGAARVGWVDGAYVLNPTLDEMKESKMDLVVAGTADAVMMVESEIQELSEEIVLGGVNFAHQQMQAVIDAIIDLAEHAAKEPFAFEPEDTDAIKAKMKDLVGADIAAAYKIQKKQDRYEAVGAAKKKAIAALGLSDENPTGYDPLKLGAIFKELEADVVRRGILDTGLRIDGRDVKTVRPILGEVGILPRTHGSALFTRGETQAIVVATLGTGDDEQFIDALEGTYKESFLLHYNFPPYSVGETGRMGSPGRREIGHGKLAWRALRPMLPTKEDFPYTIRLVSEITESNGSSSMATVCGSSLAMMDAGVPLVRPVSGIAMGLILEQDGFAVLSDILGDEDHLGDMDFKVAGTSEGLTSLQMDIKIAGITPAIMEQALAQAKEGRAHILGEMNKAMDAPRADVGDFAPKIETINIPTDKIREVIGSGGKVIREIVATTGAKVDINDDGVVKVSASDGAKIKAAIDWIKSITDEAEVGKIYDGKVVKVVDFGAFVNFFGAKDGLVHVSQISNERVAKPSDVLKEGQMVKVKLLGFDDRGKTKLSMKVVDQETGEDLSKKEAAAEEA
notes: polynucleotide phosphorylase, pnp gene (CC0034), amplified from genomic DNA of C. crescentus strain NA1000 with primers from the start codon to the stop codon; Two alternative constructs were made (GST-PNPase from pGEX-6p-1, GST cut off with PreScission protease; 6xHis-PNPase from pET-DUET); the two tags are not on one chain; also called PNPase; C. crescentus PNPase; source: E. coli, purified …

Data set [1] has as its target T1, PNPase (polynucleotide phosphorylase) (Caulobacter crescentus, UniProt Q9AC32 1-712).
T1 sequence: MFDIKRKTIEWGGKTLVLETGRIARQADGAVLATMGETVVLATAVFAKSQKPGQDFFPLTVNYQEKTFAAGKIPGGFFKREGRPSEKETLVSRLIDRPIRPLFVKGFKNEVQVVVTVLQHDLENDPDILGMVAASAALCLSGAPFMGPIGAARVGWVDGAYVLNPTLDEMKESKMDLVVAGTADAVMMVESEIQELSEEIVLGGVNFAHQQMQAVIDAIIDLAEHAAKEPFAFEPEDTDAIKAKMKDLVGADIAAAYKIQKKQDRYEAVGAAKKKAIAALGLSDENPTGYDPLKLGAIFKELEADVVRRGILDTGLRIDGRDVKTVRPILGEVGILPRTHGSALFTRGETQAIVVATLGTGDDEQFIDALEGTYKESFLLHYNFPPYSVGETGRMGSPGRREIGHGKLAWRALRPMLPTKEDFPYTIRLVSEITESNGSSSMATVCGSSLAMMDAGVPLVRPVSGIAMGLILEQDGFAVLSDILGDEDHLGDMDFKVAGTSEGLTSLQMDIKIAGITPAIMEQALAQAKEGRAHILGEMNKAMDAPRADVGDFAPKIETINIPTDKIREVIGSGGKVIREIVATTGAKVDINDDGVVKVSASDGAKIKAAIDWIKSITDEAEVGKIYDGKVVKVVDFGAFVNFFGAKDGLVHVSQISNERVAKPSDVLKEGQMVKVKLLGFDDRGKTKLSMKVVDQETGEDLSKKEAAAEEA
Description: X-ray crystallography; co-crystallized with apo-PNPase; same cell and space group (P22121) as endogenous RNA complex; Crystals of RNA-bound PNPase: 24% w/v PEG 3350, 0.1 M bis-Tris pH 5.5, 0.1 M ammonium acetate, 18 C. The settings on record: protein: recombinant; tags: 6xHis N-terminal (pET-DUET) or N-terminal GST (pGEX-6p-1) removed with PreScission; chain copies: 3.

Data set [2] concerns the target B3. Put plainly: crystal structure; apo-PNPase co-crystallised with the peptide at 2 : 1 molar excess; rhombohedral (R3) and hexagonal (P6_(3)) forms, sitting drop, 18°C. The settings on record: both partners purified.
For data set [3], the target named is B3. Put plainly: native gel or EMSA; approximate fourfold molar excess of GST-peptide mixed with PNPase, 20 mM Tris–HCl pH 7.5, 200 mM NaCl, room temperature 10 min, 8 per cent non-denaturing PAGE. The settings on record: both partners purified. In general terms: A gel shift assay detects complexes by their altered migration in electrophoresis.
Data set [4] deals with the molecule itself. Description: crystal structure; apo-PNPase co-crystallised with the peptide at 2 : 1 molar excess; rhombohedral (R3) and hexagonal (P6_(3)) forms, sitting drop, 18°C.

For the molecule GUUUAUUGCCGUUCUUGUUAUAUGCCUU (ssRNA) [27mer MicC portion RNA], the binding result in data set [1] is reported as “binds”.

B1: C. crescentus PNPase recognition peptide from RNase E (EKPRRGWWRR) (peptide)
peptide: EKPRRGWWRR
notes: last 10 amino acids of C. crescentus RNase E; also called GWW peptide; RNase E recognition peptide; source: synthetic peptide (Cambridge Research Biochemicals)
Turning to B1, in data set [2], the binding result is reported as “binds”.

B2: GST fused to the PNPase recognition peptide of RNase E (TAPPEKPRRGWWRR) (peptide)
chain: TAPPEKPRRGWWRR
notes: C-terminal PNPase recognition peptide of C. crescentus RNase E, encoded by the 3' end of the rne gene (cc1877); Cloned in pGEX-6p-1 through BamHI and XhoI; also called GST–GWW; GST–GWW peptide; source: E. coli, purified (glutathione sepharose); not shown: GST, N-terminal, kept
For the molecule B2, the binding result in data set [3] was “binds”.
Regarding B3, the “stoichiometry N” value in data set [4] is 3.

The stoichiometry N is a count of units in the complex or per binding partner.
